B1: human monoclonal IgM antibody COU-1 (antibody, V domains shown)
VH: GAEVKKPGASVKVSCKASDYTFSSYYMHWVRQAPGQGLEWMGIINPSGGSTSYAQKFQGRVTMTRDTSTNTVYMELSSLRSEDTAVYYCARDQVVVAATLSNYGMDVWGQGTTVTVSS
VL: ELTQSPGTLSLSPGERATLSCRASQSVSSSYLAWYQQKPGQAPRLLIYDASNRATGIPARFSGSGSGTDFTLTISSLEPEDFAVYYCQQGTNWGIAFGQGTRLDIKR
B2: recombinant B9165 Fab (Fab, V domains shown)
VH: B1 VH
VL: B1 VL

Tests used:
[1] = target: lysate of the colon cancer cell line colon 137 (COU-1 antigen positive); assay: ELISA on coated colon 137 lysate
[2] = target: K8(1-124)/K18(1-124) heterotypic complex (human) (UniProt P05787); assay: SPR (BIAcore), complex immobilized, COU-1 injected
[3] = target: K8(1-124)/intact K18 heterotypic complex (human) (UniProt P05787); assay: SPR (BIAcore), complex immobilized, COU-1 injected

| Binder | concentration needed for saturation [1] [µg/mL] | Ka [2] [M⁻¹] | Kd [2] [nM] | koff [2] [s⁻¹] | kon [2] [M⁻¹ s⁻¹] | Ka [3] [M⁻¹] | Kd [3] [nM] | koff [3] [s⁻¹] | kon [3] [M⁻¹ s⁻¹] |
| --- | --- | --- | --- | --- | --- | --- | --- | --- | --- |
| B1 | 1 | 9.5e+08 | 1.05 | 0.0003 | 280000 | 1.4e+09 | 0.71 | 0.00012 | 170000 |
| B2 | 20 |  |  |  |  |  |  |  |  |

— US20050048070A1
